Laboratory results as given in patent US11653679B2, “High-purity steviol glycosides” (PureCircle Sdn Bhd, priority 2014, dated 2023).

Assay: Directed evolution of UGT76G1, Rebaudioside D to Rebaudioside M, round 1 (Example 26)
Assay type: biochemical
Conditions: 100 μL fresh lysate, 0.5 mM Rebaudioside D, 30° C., pH 7.2
Method in brief: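 Cleared cell lysate (Bugbuster) incubated with 0.5 mM Rebaudioside D, 3 mM MgCl2 and 2.5 mM UDP-glucose in 50 mM phosphate pH 7.2 at 30 °C. Samples at 2, 4, 7 and 24 h analysed by HPLC-CAD for conversion and initial rate.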

Molecule	conversion Reb D to Reb M after 24 h	initial rate
UGT76G1var89: UGT76G1 variant, mutations F41L_E229A_E231A_F265L_P272A (protein, UniProt Q6VAB4 1-458, looked up, variant F41L E229A E231A F265L P272A) UDP-glycosyltransferase 76G1: MENKTETTVRRRRRIILFPVPFQGHINPILQLANVLYSKGLSITIFHTNFNKPKTSNYPHFTFRFILDNDPQDERISNLPTHGPLAGMRIPIINEHGADELRRELELLMLASEEDEEVSCLITDALWYFAQSVADSLNLRRLVLMTSSLFNFHAHVSLPQFDELGYLDPDDKTRLEEQASGFPMLKVKDIKSAYSNWQILKEILGKMIKQTKASSGVIWNSFKELEESALATVIREIPAPSFLIPLPKHLTASSSSLLDHDRTVLQWLDQQAPSSVLYVSFGSTSEVDEKDFLEIARGLVDSKQSFLWVVRPGFVKGSTWVEPLPDGFLGERGRIVKWVPQQEVLAHGAIGAFWTHSGWNSTLESVCEGVPMIFSDFGLDQPLNARYMSDVLKVGVYLENGWERGEIANAIRRVMVDEEGEYIRQNARVLKQKADVSLMKGGSSYESLESLVSYISSL	1.2%	2.1E+05 Reb M area/min
UGT76G1var6: UGT76G1 variant, mutations Q266S_S357N_I373L (protein, UniProt Q6VAB4 1-458, looked up, variant Q266S S357N I373L) UDP-glycosyltransferase 76G1: MENKTETTVRRRRRIILFPVPFQGHINPILQLANVLYSKGFSITIFHTNFNKPKTSNYPHFTFRFILDNDPQDERISNLPTHGPLAGMRIPIINEHGADELRRELELLMLASEEDEEVSCLITDALWYFAQSVADSLNLRRLVLMTSSLFNFHAHVSLPQFDELGYLDPDDKTRLEEQASGFPMLKVKDIKSAYSNWQILKEILGKMIKQTKASSGVIWNSFKELEESELETVIREIPAPSFLIPLPKHLTASSSSLLDHDRTVFSWLDQQPPSSVLYVSFGSTSEVDEKDFLEIARGLVDSKQSFLWVVRPGFVKGSTWVEPLPDGFLGERGRIVKWVPQQEVLAHGAIGAFWTHNGWNSTLESVCEGVPMLFSDFGLDQPLNARYMSDVLKVGVYLENGWERGEIANAIRRVMVDEEGEYIRQNARVLKQKADVSLMKGGSSYESLESLVSYISSL	0.5%	1.8E+06 Reb M area/min
UGT76G1var91: UGT76G1 variant, mutations E224A_L246F_T263S_F265I_Q342K (protein, UniProt Q6VAB4 1-458, looked up, variant E224A L246F T263S F265I Q342K) UDP-glycosyltransferase 76G1: MENKTETTVRRRRRIILFPVPFQGHINPILQLANVLYSKGFSITIFHTNFNKPKTSNYPHFTFRFILDNDPQDERISNLPTHGPLAGMRIPIINEHGADELRRELELLMLASEEDEEVSCLITDALWYFAQSVADSLNLRRLVLMTSSLFNFHAHVSLPQFDELGYLDPDDKTRLEEQASGFPMLKVKDIKSAYSNWQILKEILGKMIKQTKASSGVIWNSFKALEESELETVIREIPAPSFLIPFPKHLTASSSSLLDHDRSVIQWLDQQPPSSVLYVSFGSTSEVDEKDFLEIARGLVDSKQSFLWVVRPGFVKGSTWVEPLPDGFLGERGRIVKWVPQKEVLAHGAIGAFWTHSGWNSTLESVCEGVPMIFSDFGLDQPLNARYMSDVLKVGVYLENGWERGEIANAIRRVMVDEEGEYIRQNARVLKQKADVSLMKGGSSYESLESLVSYISSL	1.2%	2.3E+05 Reb M area/min
UGT76G1var96: UGT76G1 variant, mutations F22L_E229A_L243P_F377C_A385T (protein, UniProt Q6VAB4 1-458, looked up, variant F22L E229A L243P F377C A385T) UDP-glycosyltransferase 76G1: MENKTETTVRRRRRIILFPVPLQGHINPILQLANVLYSKGFSITIFHTNFNKPKTSNYPHFTFRFILDNDPQDERISNLPTHGPLAGMRIPIINEHGADELRRELELLMLASEEDEEVSCLITDALWYFAQSVADSLNLRRLVLMTSSLFNFHAHVSLPQFDELGYLDPDDKTRLEEQASGFPMLKVKDIKSAYSNWQILKEILGKMIKQTKASSGVIWNSFKELEESALETVIREIPAPSFPIPLPKHLTASSSSLLDHDRTVFQWLDQQPPSSVLYVSFGSTSEVDEKDFLEIARGLVDSKQSFLWVVRPGFVKGSTWVEPLPDGFLGERGRIVKWVPQQEVLAHGAIGAFWTHSGWNSTLESVCEGVPMIFSDCGLDQPLNTRYMSDVLKVGVYLENGWERGEIANAIRRVMVDEEGEYIRQNARVLKQKADVSLMKGGSSYESLESLVSYISSL	1.2%	2.7E+05 Reb M area/min
UGT76G1var90: UGT76G1 variant, mutations E231A_S241I_S274G_Y397Q_Q425E (protein, UniProt Q6VAB4 1-458, looked up, variant E231A S241I S274G Y397Q Q425E) UDP-glycosyltransferase 76G1: MENKTETTVRRRRRIILFPVPFQGHINPILQLANVLYSKGFSITIFHTNFNKPKTSNYPHFTFRFILDNDPQDERISNLPTHGPLAGMRIPIINEHGADELRRELELLMLASEEDEEVSCLITDALWYFAQSVADSLNLRRLVLMTSSLFNFHAHVSLPQFDELGYLDPDDKTRLEEQASGFPMLKVKDIKSAYSNWQILKEILGKMIKQTKASSGVIWNSFKELEESELATVIREIPAPIFLIPLPKHLTASSSSLLDHDRTVFQWLDQQPPGSVLYVSFGSTSEVDEKDFLEIARGLVDSKQSFLWVVRPGFVKGSTWVEPLPDGFLGERGRIVKWVPQQEVLAHGAIGAFWTHSGWNSTLESVCEGVPMIFSDFGLDQPLNARYMSDVLKVGVQLENGWERGEIANAIRRVMVDEEGEYIRENARVLKQKADVSLMKGGSSYESLESLVSYISSL		1.9E+07 Reb M area/min
UGT76G1var92: UGT76G1 variant, mutations K303G_S357N_V366I_V394I_I407V (protein, UniProt Q6VAB4 1-458, looked up, variant K303G S357N V366I V394I I407V) UDP-glycosyltransferase 76G1: MENKTETTVRRRRRIILFPVPFQGHINPILQLANVLYSKGFSITIFHTNFNKPKTSNYPHFTFRFILDNDPQDERISNLPTHGPLAGMRIPIINEHGADELRRELELLMLASEEDEEVSCLITDALWYFAQSVADSLNLRRLVLMTSSLFNFHAHVSLPQFDELGYLDPDDKTRLEEQASGFPMLKVKDIKSAYSNWQILKEILGKMIKQTKASSGVIWNSFKELEESELETVIREIPAPSFLIPLPKHLTASSSSLLDHDRTVFQWLDQQPPSSVLYVSFGSTSEVDEKDFLEIARGLVDSGQSFLWVVRPGFVKGSTWVEPLPDGFLGERGRIVKWVPQQEVLAHGAIGAFWTHNGWNSTLESICEGVPMIFSDFGLDQPLNARYMSDVLKIGVYLENGWERGEVANAIRRVMVDEEGEYIRQNARVLKQKADVSLMKGGSSYESLESLVSYISSL	1.6%	3.6E+05 Reb M area/min
UGT76G1var93: UGT76G1 variant, mutations I43V_Q266E_S375M_S389E_V394I (protein, UniProt Q6VAB4 1-458, looked up, variant I43V Q266E S375M S389E V394I) UDP-glycosyltransferase 76G1: MENKTETTVRRRRRIILFPVPFQGHINPILQLANVLYSKGFSVTIFHTNFNKPKTSNYPHFTFRFILDNDPQDERISNLPTHGPLAGMRIPIINEHGADELRRELELLMLASEEDEEVSCLITDALWYFAQSVADSLNLRRLVLMTSSLFNFHAHVSLPQFDELGYLDPDDKTRLEEQASGFPMLKVKDIKSAYSNWQILKEILGKMIKQTKASSGVIWNSFKELEESELETVIREIPAPSFLIPLPKHLTASSSSLLDHDRTVFEWLDQQPPSSVLYVSFGSTSEVDEKDFLEIARGLVDSKQSFLWVVRPGFVKGSTWVEPLPDGFLGERGRIVKWVPQQEVLAHGAIGAFWTHSGWNSTLESVCEGVPMIFMDFGLDQPLNARYMEDVLKIGVYLENGWERGEIANAIRRVMVDEEGEYIRQNARVLKQKADVSLMKGGSSYESLESLVSYISSL	1.8%	4.5E+05 Reb M area/min
UGT76G1var95: UGT76G1 variant, mutations A33G_I295M_K303G_I335V_A385T (protein, UniProt Q6VAB4 1-458, looked up, variant A33G I295M K303G I335V A385T) UDP-glycosyltransferase 76G1: MENKTETTVRRRRRIILFPVPFQGHINPILQLGNVLYSKGFSITIFHTNFNKPKTSNYPHFTFRFILDNDPQDERISNLPTHGPLAGMRIPIINEHGADELRRELELLMLASEEDEEVSCLITDALWYFAQSVADSLNLRRLVLMTSSLFNFHAHVSLPQFDELGYLDPDDKTRLEEQASGFPMLKVKDIKSAYSNWQILKEILGKMIKQTKASSGVIWNSFKELEESELETVIREIPAPSFLIPLPKHLTASSSSLLDHDRTVFQWLDQQPPSSVLYVSFGSTSEVDEKDFLEMARGLVDSGQSFLWVVRPGFVKGSTWVEPLPDGFLGERGRVVKWVPQQEVLAHGAIGAFWTHSGWNSTLESVCEGVPMIFSDFGLDQPLNTRYMSDVLKVGVYLENGWERGEIANAIRRVMVDEEGEYIRQNARVLKQKADVSLMKGGSSYESLESLVSYISSL	−1.3%	−1.7E+05 Reb M area/min
